Residue numbers refer to the chain shown, from its start. Each block holds one binder with its values, some of them ahead of it.
Experiments:
[1] = molecular target: T1, BSA (UniProt P02769 25-607); assay: ELISA, antigen coated at 5 µg/ml, mAb 10 µg/ml
T1 construct: also called BSA (negative control)
Description: (§1) To evaluate the cross-reactivity of the mAb to other members of the TAM receptor tyrosine kinase subfamily, binding of the mAb to rhAXL-ECD, rhMER-ECD, rhTyro-3 and BSA (negative control) was measured by ELISA. 96-w half-area plates (Costar) were coated with 25 μl of rhAXL-ECD, rhMER-ECD, rhTyro-3 or BSA at 5 μg/ml in PBS and incubated overnight at 4° C. Microplates were washed 3 times with PBS, blocked with PBS-BSA 1%, and 25 μl of a 10 μg/ml diluted in PBS-BSA 1% were added and incubated at 37° C., 5% CO₂ for 2 hours. Plates were washed 4 times with PBS-TWEEN™ 20 0.05% and incubated for one hour at 37° C., 5% CO₂ with 25 μl of secondary antibody alkaline phosphatase conjugated F(ab)′2 goat anti-mouse IgG (H+L) (Jackson Immunoresearch) diluted 1/5000 in blocking buffer. After 4 washes with PBS-Tween 20 0.05%, 25 μl of a 1 mg/ml pN PP substrate solution was added and further incubated for one hour at 37° C. OD405 nm measurements were done using a microplate reader (Spectramax 340 PC, Molecular Devices).

[2] = molecular target: T2, recombinant human AXL extracellular domain, C-terminally His8-tagged (rhAXL-ECD) (human, UniProt P30530 26-451); assay: ELISA, antigen coated at 5 µg/ml, mAb 10 µg/ml
T2 construct: Made in CHO cells; also called (rh)AXL-ECD His8; human AXL ECD
T2 sequence: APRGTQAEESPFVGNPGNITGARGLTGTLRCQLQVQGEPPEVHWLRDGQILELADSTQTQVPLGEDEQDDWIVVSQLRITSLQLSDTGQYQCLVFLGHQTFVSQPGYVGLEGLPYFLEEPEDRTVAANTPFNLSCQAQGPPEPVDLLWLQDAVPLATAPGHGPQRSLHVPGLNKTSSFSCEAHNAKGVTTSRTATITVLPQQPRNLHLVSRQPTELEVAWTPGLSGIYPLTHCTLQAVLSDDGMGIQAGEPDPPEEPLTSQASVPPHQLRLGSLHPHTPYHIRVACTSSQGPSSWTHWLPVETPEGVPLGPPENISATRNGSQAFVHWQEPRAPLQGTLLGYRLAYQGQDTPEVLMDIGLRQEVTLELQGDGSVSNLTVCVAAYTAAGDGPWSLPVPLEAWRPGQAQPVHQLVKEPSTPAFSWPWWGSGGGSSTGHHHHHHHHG
Description: as §1

[3] = molecular target: T3, rhMER-ECD (human, UniProt Q12866 21-505); assay: ELISA, antigen coated at 5 µg/ml, mAb 10 µg/ml
T3 construct: extracellular domain
T3 sequence (looked up): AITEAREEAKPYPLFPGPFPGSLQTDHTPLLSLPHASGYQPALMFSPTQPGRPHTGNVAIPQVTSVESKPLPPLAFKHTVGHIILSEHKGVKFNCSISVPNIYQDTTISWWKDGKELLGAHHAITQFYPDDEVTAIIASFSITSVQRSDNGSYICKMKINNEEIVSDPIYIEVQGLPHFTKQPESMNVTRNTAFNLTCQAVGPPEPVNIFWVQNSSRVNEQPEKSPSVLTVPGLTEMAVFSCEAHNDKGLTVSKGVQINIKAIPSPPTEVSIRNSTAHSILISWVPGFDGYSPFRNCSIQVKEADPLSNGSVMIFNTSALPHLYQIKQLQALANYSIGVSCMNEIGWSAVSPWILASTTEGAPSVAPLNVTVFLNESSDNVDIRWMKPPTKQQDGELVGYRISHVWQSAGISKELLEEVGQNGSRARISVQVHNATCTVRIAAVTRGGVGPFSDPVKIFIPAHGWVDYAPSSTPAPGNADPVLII
Description: as §1

[4] = molecular target: T4, rhTyro-3 (human, UniProt Q06418 41-429); assay: ELISA, antigen coated at 5 µg/ml, mAb 10 µg/ml
T4 construct: extracellular domain
T4 sequence (looked up): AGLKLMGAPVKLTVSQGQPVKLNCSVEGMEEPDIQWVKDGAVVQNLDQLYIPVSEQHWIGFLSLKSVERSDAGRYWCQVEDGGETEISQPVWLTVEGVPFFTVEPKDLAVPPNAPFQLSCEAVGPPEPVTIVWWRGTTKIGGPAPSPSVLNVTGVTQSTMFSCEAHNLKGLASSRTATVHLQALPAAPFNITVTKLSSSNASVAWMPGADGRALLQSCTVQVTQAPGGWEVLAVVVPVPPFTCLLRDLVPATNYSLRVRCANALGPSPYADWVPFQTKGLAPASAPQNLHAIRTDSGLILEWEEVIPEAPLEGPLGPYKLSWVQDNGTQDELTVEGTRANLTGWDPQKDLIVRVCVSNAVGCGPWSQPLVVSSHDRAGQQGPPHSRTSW
Description: as §1

[5] = molecular target: T5, AXL fragment # 4 (AXL amino acids 219-335, FN III-1); assay: yeast surface display of hAXL fragments, whole yeast cell ELISA, signal normalised to anti-MYC
T5 chain: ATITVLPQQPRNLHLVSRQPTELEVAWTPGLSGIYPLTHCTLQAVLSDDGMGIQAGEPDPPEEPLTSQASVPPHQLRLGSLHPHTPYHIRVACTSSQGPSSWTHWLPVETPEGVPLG
From the text: (§2) Epitope mapping. […] The YSD vector (pPNL6) was from The Pacific Northwest National Laboratory, USA.

[6] = molecular target: T6, AXL fragment # 7 (AXL amino acids 135-335, IgL2+FN III-1); assay: as above
T6 chain: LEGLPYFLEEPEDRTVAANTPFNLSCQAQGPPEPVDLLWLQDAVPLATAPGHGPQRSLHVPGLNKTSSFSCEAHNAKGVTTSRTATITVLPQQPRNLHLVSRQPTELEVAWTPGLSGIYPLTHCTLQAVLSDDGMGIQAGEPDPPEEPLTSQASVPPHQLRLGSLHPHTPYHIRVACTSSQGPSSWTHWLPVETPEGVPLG
From the text: as §2

[7] = molecular target: T7, AXL fragment # 5 (AXL amino acids 321-450, FN III-2+); assay: as above
T7 chain: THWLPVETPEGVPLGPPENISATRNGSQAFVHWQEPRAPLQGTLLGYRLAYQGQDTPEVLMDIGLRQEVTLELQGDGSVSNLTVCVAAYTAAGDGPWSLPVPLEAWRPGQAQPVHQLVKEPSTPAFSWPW
From the text: as §2

T1 sequence (P02769 25-607 limits assumed): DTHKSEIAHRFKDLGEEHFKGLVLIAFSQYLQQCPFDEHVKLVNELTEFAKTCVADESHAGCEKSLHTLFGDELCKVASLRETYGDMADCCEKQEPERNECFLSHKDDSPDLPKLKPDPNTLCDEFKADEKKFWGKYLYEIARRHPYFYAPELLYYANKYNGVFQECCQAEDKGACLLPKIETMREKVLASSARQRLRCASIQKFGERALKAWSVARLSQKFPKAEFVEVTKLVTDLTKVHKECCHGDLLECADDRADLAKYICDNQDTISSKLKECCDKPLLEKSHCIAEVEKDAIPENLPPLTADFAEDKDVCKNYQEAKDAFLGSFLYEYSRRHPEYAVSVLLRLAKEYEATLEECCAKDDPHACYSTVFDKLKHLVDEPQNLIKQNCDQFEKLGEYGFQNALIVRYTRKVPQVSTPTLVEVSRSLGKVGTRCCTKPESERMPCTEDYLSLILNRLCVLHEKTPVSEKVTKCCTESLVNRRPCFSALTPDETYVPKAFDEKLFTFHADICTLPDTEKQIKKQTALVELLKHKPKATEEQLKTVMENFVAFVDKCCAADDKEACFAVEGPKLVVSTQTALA

OD405 nm [1]: 0 OD405
OD405 nm [2]: 2.3 OD405
OD405 nm [3]: 0 OD405
OD405 nm [4]: 0 OD405
binding result [5]: no binding
binding result [7]: no binding
B4: F111-3C8 (antibody, V domains shown)
VH: QVQLQQPGAELGKPGTSVKLSCKASGYTFTSYWMHWVKRVPGQGLEWIGNINPNSTSADYNEKFKRKATLTVDKSSSTAYMQLSTLTSEDSAVYYCTRPLMGPYWYFDVWGTGTTVTVSS
VL: QIVLTQSPAIMSASPGEKVTISCSASSSVSYMYWYQQKPGSSPKPWIYRTSNLASGVPARFSGSGSGTSYSLTISSMEAEDAATYYCQQYHNYPPTFGGGTKLEIK
notes: also called F111-3C8-2

OD405 nm [1]: 0 OD405
OD405 nm [2]: 1.36 OD405
OD405 nm [3]: 0 OD405
OD405 nm [4]: 0 OD405
binding result [5]: no binding
binding result [7]: no binding
B5: F111-5E9 (antibody, V domains shown)
VH: QIQLVQSGPELKKPGETVKISCKASGYTFTKYGMNWVKQAPGKGLKWMGWINTYTGEPTYADDFKGRFAFSLETSASTAYLQINNLTTEDMVTYFCAKGGYYSNPIYPMDYWGQGTSVTVSS
VL: DIQMTQTTSSLSASLGDRVTISCRASQDINNYLNWYQQKPDGTVKLLIYYISRLHSGVPSRFSGSGSGTDYSLTISNLELEDVATYFCQQGNTLPFTFGSGTKLEIK
notes: also called F111-5E9-2; mAb 5E9

The next lines start with the binder.

B1: F107-8D12 (antibody, V domains shown)
VH: QVQLQQPGAELVKPGASVQLSCKASGYTFISFWINWVKQRPGQGLEWMGNIFPGSSSTNYNEKFKSKATLTVDKSSSTAYMQLSSLTSEDSAVYFCARDYYGGSPDYWGQGTTLTVSS
VL: DIVMSQSPSSLAVSAGERVTMSCKSSQSLLNTRTRKNYLAWYQQKPGQSPKLLIYWASTRESGVPDRFTGSGSGTDFTLTISSVQAEDLAVYYCKQSYNLWTFGGGTKLEIK
notes: also called F107-8D12-2; mAb 8D12
OD405 nm [1]: 0 OD405
OD405 nm [2]: 2.59 OD405
OD405 nm [3]: 0 OD405
OD405 nm [4]: 0 OD405
binding result [5]: no binding
binding result [6]: no binding
binding result [7]: no binding

B2: F107-7H5 (antibody, V domains shown)
VH: QVQLQQPGAELVKPGASVKLSCKASGYTFTSYWINWVKQRPGQGLEWIGNIYPDSSSTNYNEKFKSKATLTVDKSSTTAYIQFSSLTSEDSAVYYCTRDTYGGSPDYWGQGTTLTVSS
VL: B1 VL with R18K, T32S, N37I, E61Q
notes: also called F107-7H5-2; mAb 7H5
OD405 nm [1]: 0 OD405
OD405 nm [2]: 2.4 OD405
OD405 nm [3]: 0 OD405
OD405 nm [4]: 0 OD405
binding result [5]: no binding
binding result [6]: no binding
binding result [7]: no binding

B3: F107-10G1 (antibody, V domains shown)
VH: EVNLVESGGGVVKPGASLKLSCEASGFTFSNYGMSWVRQTSDKRLEWVASISGGGGRTYYLDNVKGRFIISRENAKNTLYLQMSSLKSEDTALFYCARGARASYFAMDYWGQGSSVTVSS
VL: VIVMTQSHKFMSTSVGDRVSITCKASQDVTTAVAWYQQKPGQSPKLLIYWASTRHTGVPDRFTGSGSGTDYSLTISNVQTEDLAFYYCQQHFTTPLTFGAGTKLELK
notes: also called F107-10G1-3
OD405 nm [1]: 0 OD405
OD405 nm [2]: 1.76 OD405
OD405 nm [3]: 0 OD405
OD405 nm [4]: 0 OD405
binding result [5]: no binding
binding result [6]: no binding
binding result [7]: no binding
